# Measurements taken from paper PMC8990068.
# Target: Fc gamma receptor I (human) (UniProt P12314)
# Test: AlphaScreen or HTRF; AlphaLISA human FCGR binding kit (PerkinElmer), competition: donor and acceptor beads coated with unmodified IgG and FcγR-I; serial dilutions of SPGR-engineered IgG in 1X HiBlock buffer (1 mg/ml to 0.1 μg/ml); 25 °C, 90 min; signal at 615 nm
# UniProt P12314, sequence (P12314 16-292): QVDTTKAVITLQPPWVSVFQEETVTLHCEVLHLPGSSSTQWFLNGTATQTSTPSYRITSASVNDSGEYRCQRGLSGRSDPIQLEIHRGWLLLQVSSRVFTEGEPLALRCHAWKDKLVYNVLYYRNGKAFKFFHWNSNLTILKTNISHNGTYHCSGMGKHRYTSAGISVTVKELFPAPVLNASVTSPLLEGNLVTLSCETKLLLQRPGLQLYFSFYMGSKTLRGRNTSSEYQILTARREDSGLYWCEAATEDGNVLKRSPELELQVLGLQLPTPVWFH
row,Substance,signal reduction at 0.1 μg/ml
1,"SPGR-engineered human serum IgG, sample 1, (F)M3 glycans (terminating with mannose) (antibody)",60%
2,"SPGR-engineered human serum IgG, sample 2, bi-antennary (F)A2 glycans (terminating with GlcNAc) (antibody)",60%
3,"SPGR-engineered human serum IgG, sample 3, bi-antennary glycans with terminal galactose (antibody)",60%
4,"SPGR-engineered human serum IgG, sample 4, bi-antennary sialylated glycans (antibody)",60%
5,"SPGR-engineered human serum IgG, sample 5, mono-antennary glycans terminating with GlcNAc (antibody)",60%
6,"SPGR-engineered human serum IgG, sample 6, mono-antennary glycans (after GnT-I and GalT) (antibody)",60%
7,"SPGR-engineered human serum IgG, sample 7, mono-antennary glycans (after GnT-I, GalT and SialylT) (antibody)",60%
8,"SPGR-engineered human serum IgG, sample 8, bisecting glycans terminating with GlcNAc (antibody)",60%
9,"SPGR-engineered human serum IgG, sample 9, bisecting glycans (after GnT-III and GalT) (antibody)",60%
10,"SPGR-engineered human serum IgG, sample 10, bisecting sialylated glycans (FA2BG2S2 route) (antibody)",60%
